Reference: US10227575B2, “Multi-domain enzymes having cutinase activity, compositions comprising same and uses thereof” (OZYMES, priority 2015, dated 2019)
“And” between values parts separate entries of the source, which are not always exact repeats. Equal values may be shown once. Read-outs that look alike come from different tables or passages of the source. Marks after values point to notes of the source that are not given here.

What was measured:
[1] = Activity of crude culture supernatants from bioreactor; assay type: biochemical; conditions: pNP-dodecanoate
[2] = Specific activity of purified enzymes (standard esterase assay); assay type: biochemical
Protocol: In summary, using different techniques for enzyme purification, pure enzyme preparations were obtained and tested for their activity towards a standard esterase substrate, pNP-palmitate. Enzymatic activities of the purified variants are summarized below:
(§1) Esterase activity was determined by monitoring the formation of para-nitrophenol (pNP) at 410 nm from various pNP-esters using a Beckman UV spectrophotometer (model DU 640). Substrates were completely dissolved in 2-propanol (8 mM) and were then added to 50 mM Tris/HCl buffer pH 8.0 to give a final substrate concentration of 0.8 mM. The reaction (1 mL) was started by adding an appropriate amount of enzyme. One enzyme unit (U) was defined as the amount of enzyme that produced 1 μmol of product (pNP) per min; specific activity was expressed as U/mg protein. A molar extinction coefficient of 15 mM^−1 cm^−1 was used for the calculation.

[3] = Circular dichroism spectroscopy, melting temperature and refolding; assay type: physicochemical
Protocol: CD spectra were recorded using a Jasco™ J-815 spectrometer operating with the Spectra™ Manager software. Temperature was controlled using a Jasco™ PFD-452S peltier unit. Previously purified protein solutions were adjusted to 0.15 mg/mL (if quantities allowed for) and CD spectra were recorded between 190 and 250 nm using a Quartz cuvette (ID=0.1 cm). Blanks containing buffer only were prepared and used as baseline. Temperature dependent protein unfolding was monitored at 222 nm with thermo profiles ranging from 20 up to 90° C. (2° C. min-1). Samples were kept for 5 min at the respective maximum temperature and protein refolding was monitored using the same conditions as above reversing the thermo profiles. Thermodynamic parameters (Tm, ΔH, ΔS, ΔG) for the folding/unfolding process, if applicable, were calculated using the Spectra™ Manager software.

[4] = Enzyme substrate profiles, esterase assays; assay type: biochemical; conditions: highest activity towards a specific substrate set to 100%
Protocol: as §1

[5] = Enzymatic activity in the presence of organic solvents; assay type: biochemical; conditions: buffer only = 100%
Protocol: Enzyme activity in various organic solvents was studied over a concentration range of 1-30% at room temperature. pNP-palmitate was completely dissolved in 2-propanol (8 mM) and then added to 50 mM Tris/HCl buffer pH 8.0 containing up to 30% organic solvent to give a final substrate concentration of 0.8 mM. The reaction was started by addition of enzyme and the formation of pNP was assayed as described above in Example 20.1.

[6] = pH dependence of enzymes; assay type: biochemical; conditions: for Relative activity (%): highest activity = 100%
Protocol: The influence of different pH values (from 5.5 to 11) on the activities of the purified enzymes was examined in three buffer systems (sodium acetate, sodium phosphate, and Tris-HCl) at room temperature using pNP-palmitate (see esterase assay in Example 20.1) as a substrate at a final substrate concentration of 0.8 mM.

[7] = Stability in the presence of hydrogen peroxide; assay type: physicochemical
Protocol: as §1
Purified cutinases were incubated at room temperature in the presence of 0, 30, 100, 300, 1500, and 3000 ppm of hydrogen peroxide. Residual enzyme activity was assayed (see Example 20.1) after 1, 2, 3, and 7 days of incubation.

[8] = assay type: biochemical, Petromyces albertensis; conditions: for Residual ochratoxin A (%): 5 ppm Ochratoxin A, 37° C., relative to incubation without enzyme
Protocol: The enzymes purified in Example 18 were tested for their ability to degrade the mycotoxin Ochratoxin A. In general, the mycotoxin was incubated with different concentrations of the enzyme, and the remaining mycotoxin concentration, as well the respective degradation products, were monitored by LC-MS over time (where possible/applicable).
Reactions were performed in 1 mL volumes in glass HPLC vials comprising the mycotoxin to be analyzed and the enzyme to be tested. For Ochratoxin A (Petromyces albertensis, 01877 Sigma), 50 μL of a 100 ppm stock solution in methanol (final concentration of 5 ppm) was added to 910 μL of distilled water and 40 μL of the enzyme to be tested. In control reactions, the volume of enzyme was substituted with distilled water. The reactions were incubated in an Eppendorf thermomixer at 37° C. with shaking at 750 rpm. 100 μL samples were withdrawn at 1, 4 and 24 h for chromatographic analysis.
Mycotoxin analysis was carried out using a Shimadzu LCMS-2020 equipped with a UV/vis detector. Chromatographic separation of 10 μL injected sample was carried out at 30° C. on a Kinetex 2.6 μm XB-C18 column 100 Å (50×2.1 mm) using a binary gradient. For Ochratoxin A, eluent A consisted of water and eluent B consisted of acetonitrile and the UV detection wavelength was 360 nm.
The five enzymes tested were screened for their ability to degrade 5 ppm (5,000 ppb) Ochratoxin A at 37° C.

B1: CfCUT: mature wild-type cutinase from Cellulomonas flavigena, SEQ ID NO: 28 (protein, listed as Cellulomonas flavigena)
chain: APACPDVELVFARGTGEAAGLGIVGRPLERALAAELPGRTVVATAVDYAASSSQASAGPGSGDMVAKVRSRAAACPGTQFVLGGYSQGATVTDLALGIRTGVTAGTALPEDLAARVAAVVVYGNPLGLTRRTIAQAAPAFATRTVEYCNAGDPVCEPGGGRFTAHITYATNGTVLEGARFAAARVTAPAPTPTPGPTGTPAPVPSAEPTPAPGDTCVTASSLQHVRDGRAYPLWMRTYARGSGDPLGVLSSRTVVSLQADGTDTWRKVAAC
[1]
  activity of crude culture supernatant: 0.5 U/mL
[2]; pNP-palmitate
  Enzymatic activity of the purified variant: 26 ± 1 U/mg
[2]; towards pNP-palmitate (standard assay)
  Spec. Act. (U/mg): 26 ± 1 U/mg
[3]; CD at 222 nm
  refolding: did not show any refolding
[3]; CD at 222 nm, unfolding
  melting temperature (Tm): 65.2 °C
[3]; estimated using CD-spectroscopy
  Tm (° C.): 65 ± 1 °C
[4]
  Relative activity, pNP-acetate (C2): 6%
  Relative activity, pNP-butyrate (C4): 93 ± 8%
  Relative activity, pNP-caprylate (C8): 11 ± 2%
  Relative activity, pNP-decanoate (C10): 40 ± 5%
  Relative activity, pNP-myristate (C14): 47 ± 8%
  Relative activity, pNP-palmitate (C16): 100* %
[5]; 2-Propanol 5% (v/v)
  Relative enzymatic activity (%): 70 ± 3%
[5]; 2-Propanol 10% (v/v)
  Relative enzymatic activity (%): 17 ± 8%
[5]; Acetone 1% (v/v)
  Relative enzymatic activity (%): 92 ± 9%
[5]; Acetone 5% (v/v)
  Relative enzymatic activity (%): 95 ± 1%
[5]; Acetone 10% (v/v)
  Relative enzymatic activity (%): 52 ± 5%
[5]; Dimethyl sulfoxide (DMSO) 10% (v/v)
  Relative enzymatic activity (%): 105 ± 11%
[5]; Dimethyl sulfoxide (DMSO) 20% (v/v)
  Relative enzymatic activity (%): 107 ± 1%
[5]; Dimethyl sulfoxide (DMSO) 30% (v/v)
  Relative enzymatic activity (%): 57 ± 15%
[5]; Dimethylformamide (DMF) 5% (v/v)
  Relative enzymatic activity (%): 101 ± 17%
[5]; Methanol 10% (v/v)
  Relative enzymatic activity (%): 115 ± 11%
[5]; Methanol 20% (v/v)
  Relative enzymatic activity (%): 62 ± 3%
[6]
  pH opt.: 9.5
[6]; pH 6.5, sodium phosphate buffer
  Relative activity (%): 13 ± 2%
[6]; pH 7.0, sodium phosphate buffer
  Relative activity (%): 40 ± 4%
[6]; pH 7.5, sodium phosphate buffer
  Relative activity (%): 65 ± 5%
[6]; pH 8.0, Tris/HCl
  Relative activity (%): 62 ± 2%
[6]; pH 8.5, Tris/HCl
  Relative activity (%): 85 ± 6%
[6]; pH 9.0, Tris/HCl
  Relative activity (%): 93 ± 9%
[6]; pH 9.5, Tris/HCl
  Relative activity (%): 100* %
[6]; pH 10, Tris/HCl
  Relative activity (%): 31 ± 1%
[7]; H2O2 30 ppm, Day 0
  Relative activity (%) after exposure to hydrogen peroxide: 101 ± 22%
[7]; H2O2 30 ppm, Day 1
  Relative activity (%) after exposure to hydrogen peroxide: 89 ± 8%
[7]; H2O2 30 ppm, Day 2
  Relative activity (%) after exposure to hydrogen peroxide: 82 ± 8%
[7]; H2O2 30 ppm, Day 3
  Relative activity (%) after exposure to hydrogen peroxide: 76 ± 6%
[7]; H2O2 30 ppm, Day 7
  Relative activity (%) after exposure to hydrogen peroxide: 72 ± 7%
[7]; H2O2 100 ppm, Day 0
  Relative activity (%) after exposure to hydrogen peroxide: 92 ± 5%
[7]; H2O2 100 ppm, Day 1
  Relative activity (%) after exposure to hydrogen peroxide: 114 ± 15%
[7]; H2O2 100 ppm, Day 2
  Relative activity (%) after exposure to hydrogen peroxide: 118 ± 15%
[7]; H2O2 100 ppm, Day 3
  Relative activity (%) after exposure to hydrogen peroxide: 92 ± 11%
[7]; H2O2 100 ppm, Day 7
  Relative activity (%) after exposure to hydrogen peroxide: 94 ± 7%
[7]; H2O2 300 ppm, Day 0
  Relative activity (%) after exposure to hydrogen peroxide: 93 ± 12%
[7]; H2O2 300 ppm, Day 1
  Relative activity (%) after exposure to hydrogen peroxide: 106 ± 20%
[7]; H2O2 300 ppm, Day 2
  Relative activity (%) after exposure to hydrogen peroxide: 118 ± 12%
[7]; H2O2 300 ppm, Day 3
  Relative activity (%) after exposure to hydrogen peroxide: 102 ± 14%
[7]; H2O2 300 ppm, Day 7
  Relative activity (%) after exposure to hydrogen peroxide: 106 ± 13%
[7]; H2O2 1,500 ppm, Day 0
  Relative activity (%) after exposure to hydrogen peroxide: 126 ± 1%
[7]; H2O2 1,500 ppm, Day 1
  Relative activity (%) after exposure to hydrogen peroxide: 106 ± 12%
[7]; H2O2 1,500 ppm, Day 2
  Relative activity (%) after exposure to hydrogen peroxide: 109 ± 2%
[7]; H2O2 1,500 ppm, Day 3
  Relative activity (%) after exposure to hydrogen peroxide: 95 ± 4%
[7]; H2O2 1,500 ppm, Day 7
  Relative activity (%) after exposure to hydrogen peroxide: 54 ± 16%
[7]; H2O2 3,000 ppm, Day 0
  Relative activity (%) after exposure to hydrogen peroxide: 128% and 128 ± 18%
[7]; H2O2 3,000 ppm, Day 1
  Relative activity (%) after exposure to hydrogen peroxide: 115 ± 2%
[7]; H2O2 3,000 ppm, Day 2
  Relative activity (%) after exposure to hydrogen peroxide: 99 ± 23%
[7]; H2O2 3,000 ppm, Day 3
  Relative activity (%) after exposure to hydrogen peroxide: 60 ± 6%
[7]; H2O2 3,000 ppm, Day 7
  Relative activity (%) after exposure to hydrogen peroxide: 35% and 35 ± 1%
[8]; 1 h
  Residual ochratoxin A (%): 11%
[8]; 4 h
  Residual ochratoxin A (%): 2%
[8]; 24 h
  Residual ochratoxin A (%): 0%
[8]; per 1 U of enzyme (pNP standard test) and hour at 37° C.
  Ochratoxin A Degradation per U and h: 3 µmol
